{"source": "patent US12059448B2", "about": "“Pharmaceutical composition comprising thrombolytic peptide-tetrahydroisoquinoline conjugate” (Lumosa Therapeutics Co., LTD, priority 2019, dated 2024)", "test": "Formulation stability in different pH solutions (Example 2), DC009 assay recovery by HPLC", "format": "physicochemical", "description": "DC009 were prepared according to the US Publication Application No. 2016-0083423. The final product was washed repetitively by DCM, THF and ethyl ether several times to increase the purity of the final product. The concentration and purity of DC009 in a solution are determined by HPLC with the following conditions. • Column: alkyl reversed-phase bounded phase column • Mobile Phase (MP): MP A: 0.1% by volume TFA in DI water/MP B: 0.1% by volume TFA in acetonitrile • Detection Wavelength: 214 & 280 nm • Column Temperature: 20-25° C. • Sample Temperature: 10-15° C. • Injection Volume: 10-20 μL • Gradient: MP A and MP B\nIn Examples 2-6, the stability of each formulation is shown as “assay recovery” or “relative purity level”. Samples at each time point was analyzed by HPLC as described above. For “Assay Recovery”, the % number is calculated by dividing the DC009 concentration at the time point by the DC009 concentration at T=0. For “Relative purity level”, the % number is calculated by (Peak area % of DC009 at Tn/Peak area % of DC009 at T0)*100%. […]\nThese formulations were stored at 40° C. and 60° C. to evaluate the assay recovery and total impurity. The appearance and stability at each storage condition were recorded at Table 2 and Table 3."}
{"smiles": "C[C@H](NC(=O)[C@@H]1CCCN1)C(=O)N[C@@H](CCCCN)C(=O)NCCCC[C@H](NC(=O)[C@@H]1Cc2cc(O)c(O)cc2C(C)(C)N1)C(=O)O", "note": "[DC009, 3S-6,7-dihydroxy-1,1-dimethyl-1,2,3,4-tetrahydro-isoquinoline-3-acyl-Lys(Pro-Ala-Lys)]", "values": [{"measurement": "stability of DC009", "setting": "acidic conditions", "result": "stable"}, {"measurement": "stability of DC009", "setting": "pH between 4 and 5", "result": "very stable"}]}
